From patent CN113939539A (BIOSION BIO TECH NANJING CO LTD, dated 2022)

Tests used:
[1] = target: T1, 重组人CSF-1R-his蛋白 (Acro biosystems, Cat#CSR-H5228) (human, UniProt P07333 20-512); assay: BLI (Octet), antibody on AHC sensor, CSF-1R-his in solution
T1 construct: Bought protein; also called human CSF-1R-his; not shown: His tag

[2] = target: T2, 猴CSF-1R-his蛋白 (内部制备, SEQ ID NO: 62) (monkey (cynomolgus), UniProt P07333 20-517 (human entry), limits assumed); assay: indirect ELISA on coated monkey CSF-1R-his
T2 construct: Made in-house, coated in the indirect ELISA; also called monkey CSF-1R-his (in-house)
T2 chain: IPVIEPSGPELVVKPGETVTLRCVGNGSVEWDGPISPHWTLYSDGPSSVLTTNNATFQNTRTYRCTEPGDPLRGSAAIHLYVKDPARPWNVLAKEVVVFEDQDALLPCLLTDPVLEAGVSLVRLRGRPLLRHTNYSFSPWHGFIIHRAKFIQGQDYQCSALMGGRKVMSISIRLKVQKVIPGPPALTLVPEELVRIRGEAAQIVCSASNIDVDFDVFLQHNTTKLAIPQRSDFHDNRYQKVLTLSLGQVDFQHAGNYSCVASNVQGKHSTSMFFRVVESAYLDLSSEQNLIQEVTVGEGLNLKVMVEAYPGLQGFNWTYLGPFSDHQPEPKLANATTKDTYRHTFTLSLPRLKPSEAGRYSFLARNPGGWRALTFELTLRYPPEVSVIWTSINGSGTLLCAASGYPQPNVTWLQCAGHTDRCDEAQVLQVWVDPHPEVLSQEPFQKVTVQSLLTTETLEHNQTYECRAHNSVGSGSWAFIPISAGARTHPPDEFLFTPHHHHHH

生物素标记的人CSF-1R-Fc蛋白 = target: T3, 生物素标记的人CSF-1R-Fc蛋白 (human, biotin-labelled (sites not given)); assay: capture ELISA: antibody captured by anti-human IgG, biotin-CSF-1R-Fc in solution
T3 construct: Made in-house; also called human CSF-1R-Fc

Measured: binding result

T3 sequence (chain, as listed by the source limits assumed): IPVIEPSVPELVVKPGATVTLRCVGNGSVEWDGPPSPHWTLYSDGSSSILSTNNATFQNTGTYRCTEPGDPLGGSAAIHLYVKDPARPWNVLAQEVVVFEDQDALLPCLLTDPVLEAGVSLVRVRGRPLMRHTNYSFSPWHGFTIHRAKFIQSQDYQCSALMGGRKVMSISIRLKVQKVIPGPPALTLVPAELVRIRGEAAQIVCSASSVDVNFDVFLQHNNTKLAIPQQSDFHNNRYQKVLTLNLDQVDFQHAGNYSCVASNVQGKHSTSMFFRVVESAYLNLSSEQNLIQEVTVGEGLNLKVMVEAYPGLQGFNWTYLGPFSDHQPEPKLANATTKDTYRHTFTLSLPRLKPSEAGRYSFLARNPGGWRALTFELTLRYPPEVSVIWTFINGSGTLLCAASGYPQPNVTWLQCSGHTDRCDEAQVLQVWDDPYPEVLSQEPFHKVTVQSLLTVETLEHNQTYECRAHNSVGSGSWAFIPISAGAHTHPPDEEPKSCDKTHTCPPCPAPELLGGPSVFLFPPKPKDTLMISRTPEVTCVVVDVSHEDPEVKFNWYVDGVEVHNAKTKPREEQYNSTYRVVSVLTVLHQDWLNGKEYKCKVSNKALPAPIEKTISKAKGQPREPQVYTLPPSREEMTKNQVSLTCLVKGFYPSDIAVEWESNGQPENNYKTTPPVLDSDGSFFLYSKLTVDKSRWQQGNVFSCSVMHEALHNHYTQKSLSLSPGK
T1 sequence (P07333 20-512 limits assumed): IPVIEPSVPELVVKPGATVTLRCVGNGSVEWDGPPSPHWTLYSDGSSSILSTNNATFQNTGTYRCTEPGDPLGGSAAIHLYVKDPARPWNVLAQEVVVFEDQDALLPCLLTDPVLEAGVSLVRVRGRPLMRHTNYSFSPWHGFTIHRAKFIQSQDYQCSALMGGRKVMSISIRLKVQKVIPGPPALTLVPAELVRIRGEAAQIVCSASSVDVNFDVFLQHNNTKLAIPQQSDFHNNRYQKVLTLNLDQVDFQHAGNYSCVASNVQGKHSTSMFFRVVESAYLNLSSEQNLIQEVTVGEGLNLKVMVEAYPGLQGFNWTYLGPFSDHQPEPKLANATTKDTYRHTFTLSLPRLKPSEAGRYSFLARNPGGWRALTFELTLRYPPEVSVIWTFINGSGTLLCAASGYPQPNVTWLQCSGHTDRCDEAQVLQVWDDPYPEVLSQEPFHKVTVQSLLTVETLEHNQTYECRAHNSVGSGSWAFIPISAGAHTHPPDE

B1: 卡比利珠单抗 (antibody, human IgG4 S228P, kappa, V domains shown)
VH: QVQLVQSGAEVKKPGSSVKVSCKASGYTFTDNYMIWVRQAPGQGLEWMGDINPYNGGTTFNQKFKGRVTITADKSTSTAYMELSSLRSEDTAVYYCARESPYFSNLYVMDYWGQGTLVTVSS
VL: NIVLTQSPATLSLSPGERATLSCKASQSVDYDGDNYMNWYQQKPGQAPRLLIYAASNLESGIPARFSGSGSGTDFTLTISSLEPEDFAVYYCHLSNEDLSTFGGGTKVEIKR
notes: Made in-house; also called Cabiralizumab; 对照基准物
binds: all assays above
